B1: Protein piwi (Drosophila melanogaster (Fruit fly)), Q9VKM1 (parent)
chain: MADDQGRGRRRPLNEDDSSTSRGSGDGPRVKVFRGSSSGDPRADPRIEASRERRALEEAPRREGGPTERKPWGDQYDYLNTRPAELVSKKGTDGVPVMLQTNFFRLKTKPEWRIVHYHVEFEPSIENPRVRMGVLSNHANLLGSGYLFDGLQLFTTRKFEQEITVLSGKSKLDIEYKISIKFVGFISCAEPRFLQVLNLILRRSMKGLNLELVGRNLFDPRAKIEIREFKMELWPGYETSIRQHEKDILLGTEITHKVMRTETIYDIMRRCSHNPARHQDEVRVNVLDLIVLTDYNNRTYRINDVDFGQTPKSTFSCKGRDISFVEYYLTKYNIRIRDHNQPLLISKNRDKALKTNASELVVLIPELCRVTGLNAEMRSNFQLMRAMSSYTRMNPKQRTDRLRAFNHRLQNTPESVKVLRDWNMELDKNVTEVQGRIIGQQNIVFHNGKVPAGENADWQRHFRDQRMLTTPSDGLDRWAVIAPQRNSHELRTLLDSLYRAASGMGLRIRSPQEFIIYDDRTGTYVRAMDDCVRSDPKLILCLVPNDNAERYSSIKKRGYVDRAVPTQVVTLKTTKNRSLMSIATKIAIQLNCKLGYTPWMIELPLSGLMTIGFDIAKSTRDRKRAYGALIASMDLQQNSTYFSTVTECSAFDVLANTLWPMIAKALRQYQHEHRKLPSRIVFYRDGVSSGSLKQLFEFEVKDIIEKLKTEYARVQLSPPQLAYIVVTRSMNTRFFLNGQNPPPGTIVDDVITLPERYDFYLVSQQVRQGTVSPTSYNVLYSSMGLSPEKMQKLTYKMCHLYYNWSGTTRVPAVCQYAKKLATLVGTNLHSIPQNALEKKFYYL
partner: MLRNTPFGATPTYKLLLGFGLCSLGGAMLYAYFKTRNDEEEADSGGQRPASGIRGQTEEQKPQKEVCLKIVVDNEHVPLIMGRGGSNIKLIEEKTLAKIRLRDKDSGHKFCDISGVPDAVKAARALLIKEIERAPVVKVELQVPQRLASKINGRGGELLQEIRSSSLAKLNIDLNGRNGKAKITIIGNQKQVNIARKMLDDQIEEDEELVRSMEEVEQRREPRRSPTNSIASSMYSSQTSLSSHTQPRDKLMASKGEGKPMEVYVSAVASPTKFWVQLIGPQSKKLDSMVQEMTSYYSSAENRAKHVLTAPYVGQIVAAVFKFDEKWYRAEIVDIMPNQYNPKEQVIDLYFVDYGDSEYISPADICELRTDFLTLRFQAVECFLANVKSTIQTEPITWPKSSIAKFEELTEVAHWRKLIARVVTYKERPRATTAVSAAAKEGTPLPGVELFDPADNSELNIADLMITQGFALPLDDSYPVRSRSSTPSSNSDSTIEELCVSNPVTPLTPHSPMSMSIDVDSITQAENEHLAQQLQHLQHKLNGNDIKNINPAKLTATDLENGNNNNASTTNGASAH
B2: Protein argonaute-3 (Drosophila melanogaster (Fruit fly)), Q7PLK0 (parent)
chain: MSGRGNLLSLFNKNAGNMGKSISSKDHEIDSGLDFNNSESSGERLLSSHNIETDLITTLQHVNISVGRGRARLIDTLKTDDHTSNQFITSESKENITKKTKGPESEAIASENGLFFPDLIYGSKGSSVNIYCNYLKLTTDESKGVFNYEVRFFPPIDSVHLRIKYLNDHKDKLGGTKTFDGNTLYLPILLPNKMTVFISKAEDVELQIRILYKKKEEMRNCTQLYNILFDRVMKVLNYVKFDRKQFDPSRPKIIPLAKLEVWPGYVTAVDEYKGGLMLCCDVSHRILCQKTVLEMLVDLYQQNVEHYQESARKMLVGNIVLTRYNNRTYKINDICFDQNPTCQFEIKTGCTSYVEYYKQYHNINIKDVNQPLIYSIKKSRGIPAERENLQFCLIPELCYLTGLRDEVRSDNKLMREIATFTRVSPNQRQMALNKFYENVSNTPAAQEILNSWGLSLTNNSNKISGRQMDIEQIYFSKISVSAGRSAEFSKHAVTNEMLKVVHLSKWIIIHLRNYRQAATSLLDNMKQACESLGMNISNPTMISLDHDRIDAYIQALRRNITMNTQMVVCICHNRRDDRYAAIKKICCSEIPIPSQVINAKTLQNDLKIRSVVQKIVLQMNCKLGGSLWTVKIPFKNVMICGIDSYHDPSNRGNSVAAFVASINSSYSQWYSKAVVQTKREEIVNGLSASFEIALKMYRKRNGKLPTNIIIYRDGIGDGQLYTCLNYEIPQFEMVCGNRIKISYIVVQKRINTRIFSGSGIHLENPLPGTVVDQHITKSNMYDFFLVSQLVRQGTVTPTHYVVLRDDCNYGPDIIQKLSYKLCFLYYNWAGTVRIPACCMYAHKLAYLIGQSIQRDVAEALSEKLFYL
partner: B1 partner

Variants of: B1
Conditions: with tdrkh_drome papi

Row | Variant | effect of a mutation on the interaction
1 | R7K;R9K | disrupting interaction strength

Variants of: B2
Conditions: with tdrkh_drome papi

Row | Variant | effect of a mutation on the interaction
2 | R68K;R70K;R72K | disrupting interaction strength
